In article PMC7138838, “Gating mechanism of elongating β-ketoacyl-ACP synthases” (Nature Communications, 2020):

B1: FabF (KASII family β-ketoacyl-ACP synthase), wild type (enzyme, E. coli)
chain: MSKRRVVVTGLGMLSPVGNTVESTWKALLAGQSGISLIDHFDTSAYATKFAGLVKDFNCEDIISRKEQRKMDAFIQYGIVAGVQAMQDSGLEITEENATRIGAAIGSGIGGLGLIEENHTSLMNGGPRKISPFFVPSTIVNMVAGHLTIMYGLRGPSISIATACTSGVHNIGHAARIIAYGDADVMVAGGAEKASTPLGVGGFGAARALSTRNDNPQAASRPWDKERDGFVLGDGAGMLVLEEYEHAKKRGAKIYAELVGFGMSSDAYHMTSPPENGAGAALAMANALRDAGIEASQIGYVNAHGTSTPAGDKAEAQAVKTIFGEAASRVLVSSTKSMTGHLLGAAGAVESIYSILALRDQAVPPTINLDNPDEGCDLDFVPHEARQVSGMEYTLCNSFGFGGTNGSLIFKKI
notes: FabF, elongating β-ketoacyl-ACP synthase (KASII family), E. coli; also called wt FabF; source: E. coli BL21, purified (Ni-NTA, thrombin cleavage, Superdex 200); not shown: His8, N-terminal, cleaved

Key:
[1] = target: FabF G402A (loop flexibility-modulated mutant) (E. coli); test: cross-linking; mechanism-based crosslinking, single time point: 40 μM crypto-AcpP, 20 μM FabF, 25 mM Tris, 150 mM NaCl, 10% glycerol, 0.5 mM TCEP, pH 7.4; SDS-PAGE densitometry; efficiency normalised to the average of wt FabF; n = 3
[2] = target: FabF F400A (gate removal mutant) (E. coli); test: as above
[3] = target: B1; test: as above; conditions: both partners purified
[4] = target: FabF D265N (loop 2 destabilization mutant) (E. coli); test: as above
[5] = target: FabF G310F (pocket-blockage mutant) (E. coli); test: as above
[6] = target: FabF G310M (pocket-blockage mutant) (E. coli); test: as above
[7] = target: FabF D265A (loop 2 destabilization mutant) (E. coli); test: as above
[8] = target: B1; test: crystal structure; AcpP covalently crosslinked through its pantetheineamide probe (Ser36) to Cys163 of the KS (crypto-AcpP:KS 5:1, 37 °C, 16 h; SEC in 20 mM Tris, 50 mM NaCl, pH 7.4); hanging drop, 6 °C, PEG 8K, 0.1 M sodium cacodylate pH 6.5; conditions: both partners purified
[9] = target: the molecule itself; test: as above

binding result [3]	crosslinking efficiency normalised to wt FabF [4] [%]	crosslinking efficiency normalised to wt FabF [5] [%]	crosslinking efficiency normalised to wt FabF [6] [%]	crosslinking efficiency normalised to wt FabF [7] [%]	Binder	other results
binds	–	–	–	–	C8Cl-AcpP (natural protein, E. coli, Ser36 carries a 4'-phosphopantetheineamide arm with the C8 chloroacrylate (chlorovinyl) probe, acyl carrier protein AcpP, E. coli; also called C8Cl (2b); source: E. coli BL21 (DE3), purified; apofied with AcpH, loaded with the C8 chloroacrylate probe by the one-pot chemoenzymatic method, purified by SEC) MSTIEERVKKIIGEQLGVKQEEVTNNASFVEDLGADSLDTVELVMALEEEFDTEIPDEEAEKITTVQAAIDYINGHQA	crosslinking efficiency normalised to wt FabF [1]: 24%; crosslinking efficiency normalised to wt FabF [2]: 133%
binds	73	85	82	63	C3Cl-AcpP (natural protein, E. coli, Ser36 carries a 4'-phosphopantetheineamide arm with the C3 chloroacrylate (chlorovinyl) probe, acyl carrier protein AcpP, E. coli; also called C3Cl (2a); source: E. coli BL21 (DE3), purified; apofied with AcpH, loaded with the C3 chloroacrylate probe by the one-pot chemoenzymatic method, purified by SEC) MSTIEERVKKIIGEQLGVKQEEVTNNASFVEDLGADSLDTVELVMALEEEFDTEIPDEEAEKITTVQAAIDYINGHQA	crosslinking efficiency normalised to wt FabF [1]: 87%
–	64	33	30	51	crypto-1a-AcpP (C12AcpP) (natural protein, E. coli, Ser36 carries a 4'-phosphopantetheineamide arm with the C12 α-bromo acyl probe 1a, acyl carrier protein AcpP, E. coli; Called 'native AcpP recombinant protein'; no tag is named; In the crosslinked complexes the α-carbon of the probe is bonded to Cys163 of the KS; also called C12αBr-AcpP; C12αBr (1a); source: E. coli BL21 (DE3), purified (isopropanol precipitation, HiTrap Q, Superdex 75); apofied with AcpH, loaded with probe 1a by the one-pot chemoenzymatic method, purified by …) MSTIEERVKKIIGEQLGVKQEEVTNNASFVEDLGADSLDTVELVMALEEEFDTEIPDEEAEKITTVQAAIDYINGHQA	binding result [8]: binds
–	–	–	–	–	crypto-1b-AcpP (C16AcpP) (natural protein, E. coli, Ser36 carries a 4'-phosphopantetheineamide arm with the C16 α-bromo acyl probe 1b, acyl carrier protein AcpP, E. coli; Called 'native AcpP recombinant protein'; no tag is named; In the crosslinked complexes the α-carbon of the probe is bonded to Cys163 of the KS; source: E. coli BL21 (DE3), purified (isopropanol precipitation, HiTrap Q, Superdex 75); apofied with AcpH, loaded with probe 1b by the one-pot chemoenzymatic method, purified by SEC) MSTIEERVKKIIGEQLGVKQEEVTNNASFVEDLGADSLDTVELVMALEEEFDTEIPDEEAEKITTVQAAIDYINGHQA	binding result [8]: binds
binds	77	73	70	72	1c-AcpP (C2αBr-AcpP) (natural protein, E. coli, Ser36 carries a 4'-phosphopantetheineamide arm with the C2 α-bromo probe 1c, acyl carrier protein AcpP, E. coli; also called C2αBr (1c); crypto-1c-ACP; source: E. coli BL21 (DE3), purified; apofied with AcpH, loaded with probe 1c by the one-pot chemoenzymatic method, purified by SEC) MSTIEERVKKIIGEQLGVKQEEVTNNASFVEDLGADSLDTVELVMALEEEFDTEIPDEEAEKITTVQAAIDYINGHQA	–
–	–	–	–	–	B1	stoichiometry N [9]: 2
–	–	–	–	–	FabB (KASI family β-ketoacyl-ACP synthase), wild type (enzyme, E. coli, FabB, elongating β-ketoacyl-ACP synthase (KASI family), E. coli; source: E. coli BL21, purified (Ni-NTA, thrombin cleavage, Superdex 200); not shown: His8, N-terminal, cleaved) MKRAVITGLGIVSSIGNNQQEVLASLREGRSGITFSQELKDSGMRSHVWGNVKLDTTGLIDRKVVRFMSDASIYAFLSMEQAIADAGLSPEAYQNNPRVGLIAGSGGGSPRFQVFGADAMRGPRGLKAVGPYVVTKAMASGVSACLATPFKIHGVNYSISSACATSAHCIGNAVEQIQLGKQDIVFAGGGEELCWEMACEFDAMGALSTKYNDTPEKASRTYDAHRDGFVIAGGGGMVVVEELEHALARGAHIYAEIVGYGATSDGADMVAPSGEGAVRCMKMAMHGVDTPIDYLNSHGTSTPVGDVKELAAIREVFGDKSPAISATKAMTGHSLGAAGVQEAIYSLLMLEHGFIAPSINIEELDEQAAGLNIVTETTDRELTTVMSNSFGFGGTNATLVMRKLKD	stoichiometry N [9]: 2
